Data on two molecules can be found in PMC6422423 (2019).

This experiment has as its target gastrin-releasing peptide receptor (UniProt P30550 1-384). Kind of experiment: competition with 125I-GRP.

Where no end group is shown, it is not given here.

gastrin-releasing peptide receptor, sequence (P30550 whole entry): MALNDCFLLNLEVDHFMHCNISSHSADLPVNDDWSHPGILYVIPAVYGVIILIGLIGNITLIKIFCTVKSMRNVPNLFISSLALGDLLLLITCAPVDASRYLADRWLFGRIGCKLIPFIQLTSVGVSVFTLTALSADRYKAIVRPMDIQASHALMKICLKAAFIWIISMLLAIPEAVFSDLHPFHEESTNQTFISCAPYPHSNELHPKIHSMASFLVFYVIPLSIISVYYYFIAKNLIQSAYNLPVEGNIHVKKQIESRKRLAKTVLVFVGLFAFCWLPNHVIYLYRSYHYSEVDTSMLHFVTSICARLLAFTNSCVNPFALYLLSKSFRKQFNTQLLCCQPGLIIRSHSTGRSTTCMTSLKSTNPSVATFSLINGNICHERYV

For YKIKVNPRGNLWATGHFM (ends and bridges not checked) [neuromedin B, unlabeled ligand peptide of the radioligand binding assays], the IC50 (commonly the point on the concentration scale where inhibition reaches its midpoint) is 151 nM.

Molecule APLQPGGSPALTKIYPRGSHWAVGHLM (ends and bridges not checked) [gastrin-releasing peptide, unlabeled ligand peptide of the radioligand binding assays] registered an IC50 of 0.2 nM.
